Among the data in patent US20170088617A1 (Boehringer Ingelheim, published 2017) are Kd values, retold here.

In assay [1] the target is T1, human CD33 on the AML-derived HL60 cell line (human, UniProt P20138 18-364).
T1 construct: whole, on cells; also called CD33 expressing HL60 cell line
In words: FACS Scatchard analysis on HL60 cells. As to the method: (§1) Fourteen CD33 binding agents (fully human monoclonal antibodies as listed in table 1 as No. 1-14, respectively) to human and cynomolgus CD33 were determined by FACS Scatchard analysis as described in Brockhoff et al., (Cytometry. 1994 Sep. 1; 17(1):75-83) on CD33 expressing cells (AML-derived HL60 cell line, recombinant HEK293-cynomolgusCD33 cell line). Briefly, dilutions of a CD33 binding agent were prepared in a 96 well plate starting with 100-400 nM in the first well (80 pil), followed by 11 dilution steps (1:2, 40+40 μl). 50 μl of CD33 binding agent dilutions are added to FACS tubes, 150 μl cells (0.8×10⁶/ml=1.2×10⁵ cells/tube) are added to each FACS tube. Cells were gently mixed and incubated for 1 h on ice. Thereafter 50 μl FITC conjugated secondary antibody (concentration 15 μg/ml; mouse mAb anti-human IgG) was added, mixed, and incubated for 30 min. on ice. 4 ml PBS ph7.2 containing 0.02% […] were added thereafter, cells were pelleted and resuspended in 300 μl PBS pH 7.2 and subjected to FACS analysis using a BD FACS Canto. All experimental steps were performed on wet ice, all CD33 binding agent dilutions were made in PBS/0.5% BSA+0.02% acid. FACS calibration was performed using Quantum FITC MESF (Premix) Beads (Bangs Laboratories). All samples were measured using the same FACS parameters. […] A regression line was drawn through the resulting data points, the slope of this line corresponds to the negative value of the association constant.

Assay [2] concerns the target T2, cynomolgus CD33 on the recombinant HEK293-cynomolgusCD33 cell line (cynomolgus, UniProt A0A7N9ICR5 17-359).
T2 construct: whole, on cells
Kind of assay: FACS Scatchard analysis on HEK293-cynomolgusCD33 cells. The method, then: as §1

For orientation: Kd means the constant that tells how readily two partners part at equilibrium.

T1 sequence (P20138 18-364): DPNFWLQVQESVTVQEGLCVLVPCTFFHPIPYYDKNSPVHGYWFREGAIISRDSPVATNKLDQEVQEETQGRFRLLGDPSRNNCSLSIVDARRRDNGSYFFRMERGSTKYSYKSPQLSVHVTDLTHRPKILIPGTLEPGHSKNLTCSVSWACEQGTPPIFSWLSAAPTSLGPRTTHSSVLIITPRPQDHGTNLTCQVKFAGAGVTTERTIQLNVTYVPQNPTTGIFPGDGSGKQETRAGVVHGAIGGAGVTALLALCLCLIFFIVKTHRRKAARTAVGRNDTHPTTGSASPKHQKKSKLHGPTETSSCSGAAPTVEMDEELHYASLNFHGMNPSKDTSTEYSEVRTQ

B1: 280-03-08 (antibody, human IgG1, kappa, V domains shown)
VH: QVQLVQSGAEVKKPGSSVKVSCKASGGTFSDYAISWVRQAPGQGLEWMGRIIPILGVANYAQKFQGRVTITADKSTRTAYMELSSLRSEDTAVYYCARNWADAFDIWGQGTMVTVSS
VL: DIQLTQSPSSLSASVGDRVTITCRASQGISSVLAWYQQKPGKAPKLLIYDASSLESGVPSRFSGSGSGTDFTLTISSLQPEDFATYYCQQFNSSITFGQGTKLEIKR
notes: Fully human monoclonal antibody; also called No 1; Clone ID# 280-03-08
For B1, the values for the Kd in assay [1] and in assay [2] were 0.3 nM and 0.03 nM, respectively.

B2: 280-61-07 (antibody, human IgG1, kappa, V domains shown)
VH: QVQLVQSGAEVKKPGSSVKVACKASGDTFSSYAISWVRQAPGQGLEWMGRVIPIIGIASYAQNFEGRVTITADRSTSTAYMALSSLRSEDTAVYYCARNWADAFDIWGQGTMVTVSS
VL: DIQLTQSPSSLSASVGDRVTITCRASQGISSVLAWYQQKPGKAPKLLIYAASSLESGVPSRFSGSGSGTDFTLTISSLQPEDFATYYCQQFNSSITFGQGTKLEIKR
notes: Fully human monoclonal antibody; also called No 9; Clone ID# 280-61-07
Take B2: the Kd in assay [1] is 0.3 nM; in assay [2], 0.4 nM.

B3: 283-07-03 (antibody, human IgG1, kappa, V domains shown)
VH: QVELVQSGAEVKKPGSSVKVSCKASGGTFSSYAISWVRQAPGQGLEWMGRIIPILGMANYAQKFQGRVTITADKSTYTAYMELSSLRSEDTAVYYCAREGGVDWYFDLWGRGTLVTVSS
VL: DIQLTQSPSSLSASVGDRVTITCRASQGISSALAWYQQKPGKAPKFMIYDASSLESGVPSRFSGSGSGTDFTLTISSLQPEDFATYYCQQFNSSITFGQGTKLEIKR
notes: Fully human monoclonal antibody; also called No 12; Clone ID# 283-07-03
As to B3, the Kd in assay [1] amounted to 0.3 nM; in assay [2], 2.1 nM.

B4: 280-50-01(mut) (antibody, human IgG1, kappa, V domains shown)
VH: QVQLVQSGAEVKKPGSSVKVACKASGDTFSSYAISWVRQAPGQGLEWMGRVIPIIGIASYAQNFQGRVTITADRSTSTAYMALSSLRSEDTAVYYCARNWADAFDIWGQGTMVTVSS
VL: DIQLTQSPSSLSASVGDRVTITCRASQGISSVLAWYQQKPGKAPKLLIYAASSLESGVPSRFSGSGSGTDFTLTISSLQPEDFATYYCQQFDSSITFGQGTKVEIKR
notes: Fully human monoclonal antibody; also called No 8
Turning to B4, the Kd in assay [1] was determined as 0.4 nM; in assay [2], 1.7 nM.

B5: 280-50-01 (antibody, human IgG1, kappa, V domains shown)
VH: QVQLVQSGAEVKKPGSSVKVACKASGDTFSSYAISWVRQAPGQGLEWMGRVIPIIGIASYAQNFQGRVTITADRSTSTAYMALSSLRSEDTAVYYCARNWADAFDIWGQGTMVTVSS
VL: DIQLTQSPSSLSASVGDRVTITCRASQGISSVLAWYQQKPGKAPKLLIYAASSLESGVPSRFSGSGSGTDFTLTISSLQPEDFATYYCQQFNSSITFGQGTKVEIKR
notes: Fully human monoclonal antibody; also called No 7; Clone ID# 280-50-01
For B5, the results for the Kd in assay [1] and in assay [2] were 0.3 nM and 0.5 nM, respectively.

B6: 280-34-02 (antibody, human IgG1, kappa, V domains shown)
VH: QVELVQSGAEVQKPGSSVKVSCKASGDTFSSYAISWVRQAPGQGLEWMGRIIPIVGIVNYAEKFQGRVTITADKSMSTAYMELSSLRSEDTAVYYCARNWADAFDIWGQGTMVTVSS
VL: DIQLTQSPSSLSASVGDRVTITCRASQGISSALAWYQQKPGKAPKLLIYDASRLESGVPSRFSGSGSGTDFTLTISSLQPEDFTTYYCQQFNSSYTFGQGTKLEIKR
notes: Fully human monoclonal antibody; also called No 6; Clone ID# 280-34-02
Turning to B6, the results for the Kd in assay [1] and in assay [2] were 0.3 nM and 0.5 nM, respectively.

B7: 283-14-01 (antibody, human IgG1, kappa, V domains shown)
VH: QVQLVQSGAEVKKPGSSVKVSCKASGGTFSSYAISWVRQAPGQGLEWMGRIIPILGIANYAQKFQGRVTITADKSTYTAYMELSSLRSEDTAVYYCAREGGVDWYFDLWGRGTLVTVSS
VL: DIQLTQSPSSLSASVGDRVTITCRASQGISSALAWYQQKPGKAPKFMIYDASSLESGVPSRFSGSGSGTDFTLTISSLQPEDFATYYCQQFNSSITFGQGTKLEIKR
notes: Fully human monoclonal antibody; also called No 14; Clone ID# 283-14-01
In the case of B7, the Kd in assay [2] came out at 2.3 nM.

B8: 280-31-01 (antibody, human IgG1, kappa, V domains shown)
VH: QVQLVQSGAEVKKPGSSVKVSCKASGGTFSDYAISWVRQAPGQGLEWMGRIIPILGVADYAQKFQGRVTITADKSTRTAYMELSSLRSEDTAVYYCARNWADAFDIWGQGTMVTVSS
VL: DIQLTQSPSSLSASVGDRVTITCRASQGISSVLAWYQQKPGKAPKLLIYDASSLESGVPSRFSGSGSGTDFTLTISSLQPEDFATYYCQQFNSSITFGQGTKLEIKR
notes: Fully human monoclonal antibody; also called No 4; Clone ID# 280-31-01
Consider B8, for which, in assay [2], the Kd amounted to 0.3 nM.

B9: 280-31-01(mut) (antibody, human IgG1, kappa, V domains shown)
VH: QVQLVQSGAEVKKPGSSVKVSCKASGGTFSDYAISWVRQAPGQGLEWMGRIIPILGVADYAQKFQGRVTITADKSTRTAYMELSSLRSEDTAVYYCARNWADAFDIWGQGTMVTVSS
VL: DIQLTQSPSSLSASVGDRVTITCRASQGISSVLAWYQQKPGKAPKLLIYDASSLESGVPSRFSGSGSGTDFTLTISSLQPEDFATYYCQQFDSSITFGQGTKLEIKR
notes: Fully human monoclonal antibody; also called No 5
Take B9: the Kd in assay [2] was found to be 0.5 nM.

B10: 283-11-03 (antibody, human IgG1, kappa, V domains shown)
VH: QVQLVQSGAEVKKPGSSMKVSCKASEDTFSSYAISWVRQAPGQGLEWMGRIIPIIGIVNYAQKFQGRVTITADKSTCTAYMELTSLRSEDTAVYYCAREGGVDWYFDLWGRGTLVTVSS
VL: DIQLTQSPSSLSASVGDRVTITCRASQGISSALAWYQQKPGKAPKFMIYDASSLESGVPSRFSGSGSGTDFTLTISSLQPEDFATYYCQQFNSSITFGQGTKLEIKR
notes: Fully human monoclonal antibody; also called No 13; Clone ID# 283-11-03
Consider B10, for which the Kd in assay [2] was found to be 0.6 nM.

B11: 283-03-03 (antibody, human IgG1, kappa, V domains shown)
VH: QVELVQSGAEVKKPGSSVKVSCKASGGTFSSYAISWVRQAPGQGLEWMGRIIPILDMANYAQKFQGRVTITADKSTYTAYMELSSLRSEDTAVYYCAREGGVDWYFDLWGRGTLVTVSS
VL: DIQLTQSPSSLSASVGDRVTITCRASQGISSALAWYQQKPGKAPKFMIYDASSLESGVPSRFSGSGSGTDFTLTISSLQPEDFATYYCQQFNSSITFGQGTKLEIKR
notes: Fully human monoclonal antibody; also called No 10; Clone ID# 283-03-03
B11: the Kd in assay [2] was determined as 1.9 nM.

B12: 280-29-12 (antibody, human IgG1, kappa, V domains shown)
VH: QVQLVQSGTEVKKPGSSVKVSCKVSGDTFSSYAISWVRQAPGQGLEWMGRIIPIIGIANYAQKFQGRVTITADKSTSTAYMELSSLRSEDTAVYYCARHWLDAFDIWGQGTMVTVSS
VL: DIQLTQSPSSLSASVGDRVTITCRASQGISSALAWSQQKPGKAPKLLIYDASSLESGVPSRFSGSGSGTDFTLTISSLQPEDFATYYCQQFNSSITFGQGTKLEIKR
notes: Fully human monoclonal antibody; also called No 3; Clone ID# 280-29-12
Take B12: in assay [2], the Kd stood at 0.6 nM.

B13: 280-21-09 (antibody, human IgG1, kappa, V domains shown)
VH: QVQLVQSGAEVKKPGSSVKVSCKASGDTFSSYAISWVRQAPGQGLEWMGRIIPIINIASYAQNFQGRVTITADKSTNTAYMELSSLRSEDTAVYYCARNWADAFDIWGQGTMVTVSS
VL: DIQLTQSPSSLSASVGDRVTITCRASQGISSALAWYQQKPGKAPKLLIYDASSLESGVPSRFSGSGSGTDFTLTISSLQPEDFATYYCQQFNSSITFGQGTKLEIKR
notes: Fully human monoclonal antibody; also called No 2; Clone ID# 280-21-09
As to B13, the Kd in assay [2] turned out to be 0.3 nM.

B14: 283-05-01 (antibody, human IgG1, kappa, V domains shown)
VH: QVELVQSGAEVKKPGSSVKVSCKASEDTFSSYAISWVRQAPGQGLEWMGRIIPIIGIVNYAQKFQGRVTITADKSTYTAYMELSSLRSEDTAVYYCAREGGVDWYFDLWGRGTLVTVSS
VL: DIQLTQSPSSLSASVGDRVTITCRASQGISSALAWYQQKPGKAPKFMIYDASSLESGVPSRFSGSGSGTDFTLTISSLQPEDFATYYCQQFNSSITFGQGTKLEIKR
notes: Fully human monoclonal antibody; also called No 11; Clone ID# 283-05-01
For the molecule B14, the Kd in assay [2] was determined as 1.1 nM.
